# Reference: patent US20140234325A1 (ALBERT EINSTEIN COLLEGE OF MEDICINE, published 2014)
# B1: mAb 20B1 (antibody, V domains shown)
# VH: QIQLVQSGPELKKPGETVRISCKASGYIFTIAGIQWVQKMPGRGLRWIGWINTHSGVPEYAEEFKGRFAFSLETSARTAYLQISNLKDEDTATYFCARIYYGNNGGVMDYWGQGTSVTVSS
# VL: DIQMTQSPSSLSASLGERVSLTCRASQEISDYLTWLQQKPDGTIKRLIYVASSLDSGVPKRFSGSRSGSDYSLTISSLESEDFADYYCLQYANYPWTFGGGTKLEIR
# B2: mAb 14G8 (antibody, V domains shown)
# VH: EVQLLESGGGLVQPGGSLKLSCATSGFTFSAYGLSWVRQTPERRLEWVASISGGGSVYYPDSVKGRFTISRDTAGDILFLQMNSLRSEDSAIYYCVRDLYGDYVGRYAYWGQGTLVIVSA
# VL: DIVMTQSPATLSVTPGDRVSLSCRASQSIGDYLHWYQQKSHESPRLLINYASQSISGIPSRFSGSGSGSDFTLIINSVEPEDVGVYYCQNGHSFPYTFGGGTKLEIR
# B3: mAb 6D3 (antibody, V domains shown)
# VH: QVQLQQSGAELVKPGASVKLSCKASGYTFTSHWMHWVKQRPGQGLEWIGEIDPSDSYINYNQIFEGKATLTVDKSSTTAYLQLSSLTSEDSAVYYCARTAGLLAPMDYWGQGTSVTVSS
# VL: DIVMTQSPSSLTVTAGEKVTMTCKSSQSLFNSGNQKNFLTWYQQIPGQPPKLLIYWASTRDSGVPDRFTGSGSGTDFTLTISSVQAEDLAVYYCQNDYTYPLTFGVGTKLELK
# Target: T1, toxic shock syndrome toxin-1 (TSST-1) (Staphylococcus aureus, UniProt P06886 41-234)
# T1 sequence: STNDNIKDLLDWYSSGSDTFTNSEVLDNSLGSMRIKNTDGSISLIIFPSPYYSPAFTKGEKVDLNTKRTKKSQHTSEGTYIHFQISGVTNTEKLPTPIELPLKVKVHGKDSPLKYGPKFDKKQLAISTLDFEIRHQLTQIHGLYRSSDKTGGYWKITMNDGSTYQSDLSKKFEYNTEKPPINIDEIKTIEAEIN
# Assay: Western blot with purified toxin
row,Binder,binding result
1,B1,no binding
2,B2,no binding
3,B3,no binding

# Target: T2, staphylococcal enterotoxin A (SEA) (Staphylococcus aureus, UniProt P0A0L1 25-257)
# T2 sequence: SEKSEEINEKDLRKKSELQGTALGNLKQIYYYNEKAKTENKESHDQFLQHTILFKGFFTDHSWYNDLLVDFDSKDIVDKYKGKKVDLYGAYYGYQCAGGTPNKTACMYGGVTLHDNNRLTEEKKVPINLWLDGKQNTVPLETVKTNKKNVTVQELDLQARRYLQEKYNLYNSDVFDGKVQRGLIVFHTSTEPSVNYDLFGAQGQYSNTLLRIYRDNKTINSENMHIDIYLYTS
# Assay: Western blot with purified toxin
row,Binder,binding result
1,B1,no binding
2,B2,no binding
3,B3,no binding
